Measurements: paper PMC3012730, “The Actinobacillus pleuropneumoniae HMW1C-Like Glycosyltransferase Mediates N-Linked Glycosylation of the Haemophilus influenzae HMW1 Adhesin” (PLoS ONE, 2010)

What was measured:
[1] = system: O=c1ccn([C@@H]2O[C@H](CO[P@@](=O)(O)O[P@@](=O)(O)O[C@H]3O[C@H](CO)[C@@H](O)[C@H](O)[C@H]3O)[C@@H](O)[C@H]2O)c(=O)[nH]1; experiment: purified protein; details: apparent Km, fixed acceptor protein His-HMW1ct (standard 3.2 µM), 50 mM HEPES pH 8.0, 50 mM KCl, 5 mM MgCl2, room temperature
[2] = system: O=c1ccn([C@@H]2O[C@H](COP(=O)(O)OP(=O)(O)O[C@H]3O[C@H](CO)[C@H](O)[C@H](O)[C@H]3O)[C@@H](O)[C@H]2O)c(=O)[nH]1; experiment: purified protein; details: apparent Km, fixed acceptor protein His-HMW1ct (standard 3.2 µM), 50 mM HEPES pH 8.0, 50 mM KCl, 5 mM MgCl2, room temperature

ApHMW1C (Actinobacillus pleuropneumoniae serovar 5b str. L20)
Km [1]: 38.9 ± 5.8 µM | Vmax [1]: 0.109 µmol/min/mg | kcat [1]: 0.13 ± 0.005 s⁻¹ | kcat/Km [1]: 3300 ± 800 M⁻¹ s⁻¹ | Km [2]: 147.5 ± 24.8 µM | Vmax [2]: 0.0643 µmol/min/mg | kcat [2]: 0.077 ± 0.005 s⁻¹ | kcat/Km [2]: 520 ± 210 M⁻¹ s⁻¹
